For one molecule, Kd results are on record in patent US20200299408A1 (Genentech, published 2020).

What is called Kd is the equilibrium constant for the complex coming apart. A lower Kd goes with a tighter complex.

One test addresses T1, G8A.
T1 construct: Residue number counts from the N-terminus of CD3ε; also called CD3εγ G8A
T1 single chain CD3ε-26mer linker-CD3γ: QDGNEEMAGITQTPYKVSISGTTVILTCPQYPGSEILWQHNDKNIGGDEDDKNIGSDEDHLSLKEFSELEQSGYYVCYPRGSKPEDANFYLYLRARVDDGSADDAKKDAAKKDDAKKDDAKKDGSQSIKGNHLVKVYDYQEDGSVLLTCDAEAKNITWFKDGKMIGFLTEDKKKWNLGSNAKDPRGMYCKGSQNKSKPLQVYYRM
Description: SPR (Biacore 4000): CD3εγ variant captured from the periplasmic fraction on UCHT1v9; analyte a bispecific antibody with one 38E4v1 arm and one irrelevant arm, 0.39-100 nM. As to the method:
The secreted CD3εγ variants were captured from the crude periplasmic fraction using anti-CD3 antibody UCHT1v9. UCHT1v9 was immobilized on a CM5 serios S chip through amine coupling using the anti-human IgG (Fc) antibody capture kit (BR-1008-39) from GE Healthcare. SPR measurements were performed on the Biacore 4000 instrument, utilizing kinetic evaluation software. In order to measure monovalent binding affinities, anti-CD3 bispecific antibodies were used in which one arm was the anti-CD3 to be tested and the arm recognized an irrelevant antigen. The bispecific anti-CD3 antibodies were passed over the captured supernatant in a concentration series of two-fold dilutions from 0.39 to 100 nM. The resulting kinetics (FIG. 13D) were measured and calculated using Biacore 4000 BIAevaluation software (product code 28-9664-57).

The target in test [1] is T2, single chain human CD3ε-26mer-CD3γ (CD3εγ) (human).
T2 construct: also called human CD3εγ
T2 chain: T1 single chain CD3ε-26mer linker-CD3γ with A8G
Nature of the test: monovalent binding affinity, method not stated on the sheet; column huCD3εγ.

Numbering of substitutions follows the chain as printed.

B1: hu38E4.v1 Fab (Fab, V domains shown)
VH: EVQLVQSGAEVKKPGASVKVSCKASGFTFTSYYIHWVRQAPGQGLEWIGWIYPENDNTKYNEKFKDRVTITADTSTSTAYLELSSLRSEDTAVYYCARDGYSRYYFDYWGQGTLVTVSS
VL: DIVMTQSPDSLAVSLGERATINCKSSQSLLNSRTRKNYLAWYQQKPGQSPKLLIYWTSTRKSGVPDRFSGSGSGTDFTLTISSLQAEDVAVYYCKQSFILRTFGQGTKVEIK
notes: Humanized anti-CD3 Fab; Point mutants of it were expressed as Fabs in HEK293 cells
For B1, the Kd with G8A was 8 nM; in test [1], 0.5 nM.
